The results in this text go back to paper PMC12948223, “HSP70 Interactome‐Mediated Proteolysis Targeting Chimera (HSP70‐PROTAC) for Ferroptosis‐Driven Cancer Treatment” (Advanced Science, 2025).

The target of experiment [1] is T1, heat shock cognate protein 70 (Hsc70), recombinant (human, UniProt P11142 1-646).
T1 construct: Hsc70 (HSPA8), human, bought recombinant protein; see the vendor's data sheet for HY-P73915A; also called HSPA8; heat shock cognate 70 protein; source: bought: MedChemExpress, #HY-P73915A (recombinant protein)
T1 sequence (P11142 whole entry): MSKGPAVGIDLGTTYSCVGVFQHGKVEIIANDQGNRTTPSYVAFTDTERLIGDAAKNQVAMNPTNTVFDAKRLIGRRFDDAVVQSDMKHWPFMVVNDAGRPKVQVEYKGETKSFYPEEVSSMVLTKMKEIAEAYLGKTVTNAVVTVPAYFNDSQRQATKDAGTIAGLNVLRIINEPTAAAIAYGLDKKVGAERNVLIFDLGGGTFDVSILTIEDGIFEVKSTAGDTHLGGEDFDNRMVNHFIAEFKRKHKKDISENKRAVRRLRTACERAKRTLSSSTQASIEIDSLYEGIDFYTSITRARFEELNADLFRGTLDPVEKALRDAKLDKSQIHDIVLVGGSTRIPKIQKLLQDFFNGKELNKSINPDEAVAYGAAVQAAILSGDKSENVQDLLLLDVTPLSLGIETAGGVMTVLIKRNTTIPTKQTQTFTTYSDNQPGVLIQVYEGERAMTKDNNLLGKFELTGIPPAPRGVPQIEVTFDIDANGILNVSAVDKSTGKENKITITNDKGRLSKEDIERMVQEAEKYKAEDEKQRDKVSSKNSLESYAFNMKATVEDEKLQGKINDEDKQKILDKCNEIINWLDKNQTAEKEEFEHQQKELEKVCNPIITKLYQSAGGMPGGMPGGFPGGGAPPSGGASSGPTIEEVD
Put plainly: SPR; Biacore 8K; human Hsc70 immobilised on a CM5 chip; GPX4 without compound (binary complex); PBS pH 7.4 running buffer, 30 uL/min, 25 °C, 120 s association and 120 s dissociation. Conditions: both partners purified. On the technique in general: Surface plasmon resonance follows binding to a sensor surface in real time, without labels.

Experiment [2] deals with T1, heat shock cognate protein 70 (Hsc70), …. Put plainly: SPR; Biacore 8K; Hsc70 immobilised on a CM5 chip; GDAz-3 at 1 uM preincubated with GPX4 (ternary-complex measurement); PBS pH 7.4, 30 uL/min, 25 °C, 120 s association and 120 s dissociation. Conditions: both partners purified.

B1: glutathione peroxidase 4 (GPX4), recombinant (enzyme)
chain: MCASRDDWRCARSMHEFSAKDIDGHMVNLDKYRGFVCIVTNVASQUGKTEVNYTQLVDLHARYAECGLRILAFPCNQFGKQEPGSNEEIKEFAAGYNVKFDMFSKICVNGDDAHPLWKWMKIQPKGKGILGNAIKWNFTKFLIDKNGCVVKRYGPMEEPLVIEKDLPHYF
modifications: Limits are by convention: cytosolic isoform, starting at precursor Met28 (paper numbering + 27, so Sec46 = U73; matches the start of 6HKQ). The commercial protein's limits and tag are not stated. …
What is called Kd is the concentration at which binding is half-saturated. Consider B1, for which, in experiment [1], the Kd is 100 nM. In addition, the “KD with GDAz-3” value in experiment [2] amounted to 23.9 nM.
